Data reported in patent US20120071394A1.

Target: human C5a receptor (C5aR) (human) (UniProt P21730)
Assay: cell-based or functional assay

human C5a receptor (C5aR) (human), sequence (P21730 whole entry): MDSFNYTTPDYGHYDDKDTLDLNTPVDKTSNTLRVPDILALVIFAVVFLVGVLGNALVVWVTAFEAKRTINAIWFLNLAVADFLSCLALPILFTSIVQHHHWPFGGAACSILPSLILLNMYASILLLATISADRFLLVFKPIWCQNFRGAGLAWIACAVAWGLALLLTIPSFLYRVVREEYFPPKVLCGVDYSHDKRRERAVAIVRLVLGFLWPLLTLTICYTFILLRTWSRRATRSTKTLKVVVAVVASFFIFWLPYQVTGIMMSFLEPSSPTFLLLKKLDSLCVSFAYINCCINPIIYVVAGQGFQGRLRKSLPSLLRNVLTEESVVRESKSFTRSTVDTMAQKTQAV

Substance: ADC-1004 (from UniProt A6QIG7 59-138)
- C5aR blocking activity (in neutrophils), % of wt CHIPS1-121 (% of wt CHIPS1-121): > 50
- Chemotaxis IC50: 49 nM
- IC50 of inhibition of calcium release, ratio to CHIPS1-121 (fold of the IC50 of CHIPS1-121): 2
- IC50 of inhibition of neutrophil migration towards C5a, ratio to CHIPS1-121 (fold of the IC50 of CHIPS1-121): 4
- concentration needed for 50% inhibition of calcium release (IC50), neutrophils stimulated with C5a: 0.4 nM

Substance: Wild-type CHIPS1-121 (Chemotaxis Inhibitory Protein of Staphylococcus aureus) (from UniProt A6QIG7 29-149)
- Chemotaxis IC50: 8.2 nM
